The numbers were not newly measured in paper PMC3317066, which cites them from elsewhere.

The target in data set [1] is falcipain-3 (Plasmodium falciparum) (UniProt Q8IIL0).
Data set [2] deals with falcipain-2 (Plasmodium falciparum) (UniProt Q8I6U4).
Data set [3] has as its target hemoglobin (Homo sapiens) (UniProt P69905).
In data set [4] the target is methemoglobin (Homo sapiens) (UniProt P69905).

Sequence of UniProt Q8IIL0 (Q8IIL0 243-492): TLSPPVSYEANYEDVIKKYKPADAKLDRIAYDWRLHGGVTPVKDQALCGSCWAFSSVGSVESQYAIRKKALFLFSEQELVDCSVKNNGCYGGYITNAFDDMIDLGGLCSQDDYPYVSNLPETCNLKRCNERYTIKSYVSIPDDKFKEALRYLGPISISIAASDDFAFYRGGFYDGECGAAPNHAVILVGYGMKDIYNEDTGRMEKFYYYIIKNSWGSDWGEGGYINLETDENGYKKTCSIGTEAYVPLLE

With cystatin (from UniProt P01038), the inhibition constant Ki in data set [1] is 100 nM; in data set [2], 6.5 nM.
As to falcipain-2 (from UniProt Q8I6U4), the results for the equilibrium dissociation constant (Kd) in data set [3] and in data set [4] were 3300 nM and 800 nM, respectively.

Usually Ki stands for a dissociation constant, usually derived from enzyme kinetics or from competition with a known ligand. In general, Kd refers to the constant that tells how readily two partners part at equilibrium.
